The data set deals with alkaline phosphatase heterodimer IAP/PALP (ALPI/ALPP) on LoVo cells (Homo sapiens, UniProt P09923;P05187 P09923:20-503,P05187:23-506). Put plainly: flow; apparent Kd on LoVo cells. To be noted: tags: endogenous, LoVo colon cancer cells, label: fluorescent dye. Here is the method: A dish of colon cancer LoVo cells in the logarithmic growth phase was digested with 0.2% EDTA in PBS into a monodisperse cell suspension, and then divided into several aliquots. The aliquots were incubated with a fluorescent molecule-labeled aptamer probe solution for 30 min and washed twice with washing buffer, and then the fluorescence intensity on the cell surface was measured with BD FACSalibur flow cytometer. The average fluorescence intensity on the cell surface was plotted against the concentration of the aptamer, and the equilibrium dissociation constant Kd of the aptamer was calculated according to the following formula: Y=BₘₐₓX (Kd+X).
Chain of alkaline phosphatase heterodimer IAP/PALP (ALPI/ALPP) on LoVo cells (P09923 20-503, chain 1 of 2): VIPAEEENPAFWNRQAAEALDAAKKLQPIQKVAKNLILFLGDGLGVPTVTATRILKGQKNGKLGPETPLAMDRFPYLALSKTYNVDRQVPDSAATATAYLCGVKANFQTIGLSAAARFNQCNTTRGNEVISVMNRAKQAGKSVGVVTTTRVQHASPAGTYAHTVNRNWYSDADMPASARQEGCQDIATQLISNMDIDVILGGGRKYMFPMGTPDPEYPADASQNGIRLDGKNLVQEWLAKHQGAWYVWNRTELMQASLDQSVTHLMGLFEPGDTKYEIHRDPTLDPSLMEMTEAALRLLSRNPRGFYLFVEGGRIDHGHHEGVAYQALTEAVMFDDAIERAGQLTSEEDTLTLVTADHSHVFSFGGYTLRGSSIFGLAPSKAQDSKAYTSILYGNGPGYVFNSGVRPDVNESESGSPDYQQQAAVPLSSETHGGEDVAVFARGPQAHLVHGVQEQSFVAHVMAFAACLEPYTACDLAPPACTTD
Chain of alkaline phosphatase heterodimer IAP/PALP (ALPI/ALPP) on LoVo cells (P05187 23-506, chain 2 of 2): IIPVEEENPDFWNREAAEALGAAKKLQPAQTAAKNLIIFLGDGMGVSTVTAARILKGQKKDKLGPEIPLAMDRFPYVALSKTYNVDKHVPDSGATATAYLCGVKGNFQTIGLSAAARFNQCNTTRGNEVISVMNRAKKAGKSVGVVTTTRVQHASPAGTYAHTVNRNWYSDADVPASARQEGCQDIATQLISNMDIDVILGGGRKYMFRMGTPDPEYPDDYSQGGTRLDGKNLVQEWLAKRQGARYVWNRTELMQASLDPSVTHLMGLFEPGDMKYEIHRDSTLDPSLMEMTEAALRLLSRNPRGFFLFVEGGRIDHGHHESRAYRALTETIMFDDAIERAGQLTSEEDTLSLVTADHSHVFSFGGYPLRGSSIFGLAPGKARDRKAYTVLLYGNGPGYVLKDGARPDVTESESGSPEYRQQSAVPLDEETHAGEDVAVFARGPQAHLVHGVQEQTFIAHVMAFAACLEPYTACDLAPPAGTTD

In the case of GATAACATAGGGGTCGGTGTGGGTGGTTATGATTGGCTGTTATC (ssDNA) [BG2 stem-replaced sequence 5], the Kd (stem-loop) stood at 3 nM.

On to TAAGAAATAGGGGTCGGTGTGGGTGGTTATGATTGGCTTTCTTA (ssDNA) [BG2 stem-replaced sequence 4], for which the Kd (stem-loop) is 5.7 nM.

Take CAAGGAATAGGGGTCGGTGTGGGTGGTTATGATTGGCTTCCTTG (ssDNA, PS at nucleotides 1-7 and the last 7 at the 3' end) [thio-modified BG2]: the Kd (stem-loop) is 3.5 nM.

B1: BG2 with primer sequences (ssDNA)
DNA: ACGCTCGGATGCCACTACAGTCAAGGAATAGGGGTCGGTGTGGGTGGTTATGATTGGCTTCCTTGTCTCATGGACGTGCTGGTGAC
For B1, the Kd came out at 2.9 nM.

GGGGTCGGTGTGGGTGGTTATGATTGG (ssDNA) [BG2e]: the Kd was 9.3 nM.

The record behind these values is patent publication US20200362349, “APPLICATION OF APTAMER IN RECOGNITION AND BINDING OF ALKALINE PHOSPHATASE HETERODIMER OR TUMOR DETECTION” (INSTITUTE OF CHEMISTRY, CHINESE ACADEMY OF SCIENCES, published 2020).
